B1: NSFL1 cofactor p47 (Rattus norvegicus (Rat)), O35987 (parent)
chain: MAEERQDALREFVAVTGAEEDRARFFLESAGWDLQIALASFYEDGGDEDIVTISQATPSSVSRGTAPSDNRVTSFRDLIHDQDEEEEEEEGQRFYAGGSERSGQQIVGPPRKKSPNELVDDLFKGAKEHGAVAVERVTKSPGETSKPRPFAGGGYRLGAAPEEESAYVAGERRRHSGQDVHVVLKLWKTGFSLDNGDLRSYQDPSNAQFLESIRRGEVPAELRRLAHGGQVNLDMEDHRDEDFVKPKGAFKAFTGEGQKLGSTAPQVLNTSSPAQQAENEAKASSSILINEAEPTTNIQIRLADGGRLVQKFNHSHRISDIRLFIVDARPAMAATSFVLMTTFPNKELADENQTLKEANLLNAVIVQRLT
B2: UBX domain-containing protein 2B (Mus musculus), Q0KL01 (parent)
chain: MAEGGRAEPEEQERGSSRPRPPSARDLQLALAELYEDEMKCKSSKPDRSTPATCRSPRTPPHRLYSGDHKYDGLHIVQPPTGKIVNELFKEAREHGAVPLNEATRSSREDKTKSFTGGGYRLGNSFYKRSEYIYGENQLQDVQVLLKLWRNGFSLDDGELRPYSDPTNAQFLESVKRGETPLELQRLVHGAQVNLDMEDHQDQEYIKPRLRFKAFSGEGQKLGSLTPEIVSTPSSPEEEDKSILNAAVLIDDSMPTTKIQIRLADGSRLVQRFNSTHRILDVRDFIVRSRPEFATTDFILVTSFPSKELTDETVTLQEADILNTVILQQLK

Variants of: B1
Conditions: with tera_rat Vcp
Target sequence in this assay (P46462 whole entry): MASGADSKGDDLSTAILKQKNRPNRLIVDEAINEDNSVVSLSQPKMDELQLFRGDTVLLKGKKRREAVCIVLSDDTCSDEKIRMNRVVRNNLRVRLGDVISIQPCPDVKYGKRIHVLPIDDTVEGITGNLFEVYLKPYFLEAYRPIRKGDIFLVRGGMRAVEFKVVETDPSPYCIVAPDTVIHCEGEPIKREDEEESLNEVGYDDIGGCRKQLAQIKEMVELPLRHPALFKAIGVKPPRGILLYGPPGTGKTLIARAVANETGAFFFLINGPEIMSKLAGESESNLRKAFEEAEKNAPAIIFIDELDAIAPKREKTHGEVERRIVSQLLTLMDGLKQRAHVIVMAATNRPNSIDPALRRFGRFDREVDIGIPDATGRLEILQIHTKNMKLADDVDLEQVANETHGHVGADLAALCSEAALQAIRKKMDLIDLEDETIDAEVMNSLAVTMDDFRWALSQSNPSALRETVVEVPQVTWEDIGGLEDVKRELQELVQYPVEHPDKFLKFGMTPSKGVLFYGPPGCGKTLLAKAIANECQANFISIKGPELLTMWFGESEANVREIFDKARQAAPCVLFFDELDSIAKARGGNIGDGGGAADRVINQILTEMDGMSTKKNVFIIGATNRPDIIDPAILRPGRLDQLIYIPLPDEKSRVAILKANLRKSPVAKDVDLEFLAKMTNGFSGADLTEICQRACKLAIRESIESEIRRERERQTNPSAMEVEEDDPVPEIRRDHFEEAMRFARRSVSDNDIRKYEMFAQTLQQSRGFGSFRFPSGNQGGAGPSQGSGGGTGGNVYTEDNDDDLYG

| effect of a mutation on the interaction | Variant |
| --- | --- |
| disrupting interaction | F253S |

Variants of: B1
Conditions: with tera_mouse Vcp

| effect of a mutation on the interaction | Variant |
| --- | --- |
| disrupting interaction | F253S |

Variants of: B2
Conditions: with tera_rat Vcp
Target sequence in this assay (P46462 whole entry): as above

| effect of a mutation on the interaction | Variant |
| --- | --- |
| disrupting interaction | F215S |

Source: IntAct's records for PubMed 20691684
